These binders were tested against T1, Dipeptidyl peptidase IV (DPP-IV) (UniProt P22411 38-766, limits assumed) (assay: cell-based or functional assay).
T1 sequence (P22411 38-766 limits assumed): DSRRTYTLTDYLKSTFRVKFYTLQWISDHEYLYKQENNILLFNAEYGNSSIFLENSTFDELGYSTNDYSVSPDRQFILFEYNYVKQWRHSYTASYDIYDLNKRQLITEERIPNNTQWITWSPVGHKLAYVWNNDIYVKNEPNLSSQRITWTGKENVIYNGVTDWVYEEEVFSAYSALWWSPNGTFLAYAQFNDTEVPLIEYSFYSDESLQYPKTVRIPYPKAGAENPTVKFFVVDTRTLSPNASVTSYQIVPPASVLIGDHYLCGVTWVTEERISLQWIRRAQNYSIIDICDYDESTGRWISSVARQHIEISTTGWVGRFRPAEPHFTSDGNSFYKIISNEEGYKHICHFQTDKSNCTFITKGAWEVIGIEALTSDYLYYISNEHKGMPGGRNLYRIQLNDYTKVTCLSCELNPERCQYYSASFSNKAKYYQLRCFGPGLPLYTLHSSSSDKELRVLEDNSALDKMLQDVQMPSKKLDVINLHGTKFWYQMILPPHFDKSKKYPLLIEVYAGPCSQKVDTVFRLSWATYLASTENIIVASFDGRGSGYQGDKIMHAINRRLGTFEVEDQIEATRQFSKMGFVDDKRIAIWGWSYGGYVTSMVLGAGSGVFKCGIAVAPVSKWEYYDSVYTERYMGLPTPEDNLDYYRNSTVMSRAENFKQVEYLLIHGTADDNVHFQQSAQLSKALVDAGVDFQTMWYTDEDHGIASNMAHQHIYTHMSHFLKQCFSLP

Binder	IC50 of DPP-IV inhibition (estimated from relative potency) [µM]
APFPEVF	~120
HPIK	~120
LPL	~5
IPI	~5

Target: T1, Dipeptidyl peptidase IV (DPP-IV)
Assay: cell-based or functional assay
Remark: another data set of the same source

Binder	RELATIVE POTENCY [%] (DPP-IV inhibition assay, Gly-Pro-p-nitroanilide conversion, on-line LC-BCD-MS)
APFPEVF	6
YVPEPF	20
MPLW	23
LPQYL	26
LPVPQ	28
GPFP	34
PLLQ	37
VPYPQ	51
VPLGTQ	55
LPVPQK	63
KVLP	98
HPIK	6
LPL	100
IPI	100
APFPE	9
GPFPIIV	9
LPLP	11
EMPFPK	12
LPVP	15
PFP	20
PQSVLS	20

— US20090075904A1 (CAMPINA NEDERLAND HOLDING B V, published 2009)
